Among the data in article PMC7870846, “Incorporation of sensing modalities into de novo designed fluorescence-activating proteins” (Nature Communications, 2021) are Kd values, retold here.

No end group written: not given here. Bounds are passed on as bounds.

Holding throughout (experiment): other fluorescence titration; MBP-tagged fragment titrated into its complementary MBP-tagged fragment; 25.0 uM DFHBI-1T; high-salt Tev cleavage buffer (25.0 mM Tris, 100 mM NaCl, pH 8.00); ex 468 nm, em 530 nm; estimated Kd, signal did not plateau
What all share (conditions): both partners purified

Assay [1] addresses T1, MBP-tagged split mFAP fragment m17.
T1 chain: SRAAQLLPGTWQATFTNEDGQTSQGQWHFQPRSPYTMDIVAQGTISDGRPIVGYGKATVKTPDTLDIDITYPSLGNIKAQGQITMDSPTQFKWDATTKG

Assay [2] addresses T2, MBP-tagged split mFAP fragment m14.
T2 chain: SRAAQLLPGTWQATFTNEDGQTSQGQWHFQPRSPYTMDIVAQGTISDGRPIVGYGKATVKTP

The target of assay [3] is T3, MBP-tagged split mFAP fragment m16.
T3 chain: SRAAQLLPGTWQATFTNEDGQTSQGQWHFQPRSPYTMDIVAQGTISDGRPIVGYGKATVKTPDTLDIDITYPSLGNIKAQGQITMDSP

What is called Kd is a measure of binding affinity in units of concentration. In the case of ENDFHGRLTGTLQRQE (domain or fragment, not fully specified) [MBP-tagged split mFAP fragment m8], the Kd in assay [1] is not below 354 µM.

B1: MBP-tagged split mFAP fragment m58 (domain or fragment)
chain: DTLDIDITYPSLGNIKAQGQITMDSPTQFKWDATTKGENDFHGRLTGTLQRQE
modifications: not fully specified
In the case of B1, the Kd in assay [2] is not below 22 µM.

Take TQFKWDATTKGENDFHGRLTGTLQRQE (domain or fragment, not fully specified) [MBP-tagged split mFAP fragment m78]: the Kd in assay [3] was not below 232 µM.
